Experimental data reported in the supplement of paper PMC12667976.
± gives the standard error.

B1: library; numbered along this chain (parent)
chain: MATDAALRRLLRLHRTEIAVAVDSAFPLLHALADHDVVPEDKFQETLHLKEKEGCPQAFHALLSWLLTQDSTAILDFWRVLFKDYNLERYGRLQPILDSFPKDVDLSQPRKGRKPPAVPKALVPPPRLPTKRKASEEARAAAPAALTPRGTASPGSQLKAKPPKKPESSAEQQRLPLGNGIQTMSASVQRAVAMSSGDVPGARGAVEGILIQQVFESGGSKKCIQVGGEFYTPSKFEDSGSGKNKARSSSGPKPLVRAKGAQGAAPGGGEARLGQQGSVPAPLALPSDPQLHQKNEDECAVCRDGGELICCDGCPRAFHLACLSPPLREIPSGTWRCSSCLQATVQEVQPRAEEPRPQEPPVETPLPPGLRSAGEEVRGPPGEPLAGMDTTLVYKHLPAPPSAAPLPGLDSSALHPLLCVGPEGQQNLAPGARCGVCGDGTDVLRCTHCAAAFHWRCHFPAGTSRPGTGLRCRSCSGDVTPAPVEGVLAPSPARLAPGPAKDDTASHEPALHRDDLESLLSEHTFDGILQWAIQSMARPAAPFPS

Variants of: B1
Assay: AIRE transcriptional activation functional score (insulin promoter-GFP; nonsense median 0, synonymous median 1) (normalised score); higher = higher AIRE activity (more reporter activation)
Conditions: with insulin promoter-GFP reporter in HEK293
Description: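 Deep mutational scan of full-length human AIRE (codon-optimized cDNA, DT-POPCode NNN libraries over three regions) integrated at a Bxb1 landing pad in HEK293 cells carrying an insulin core promoter-GFP reporter at a Flp-In site. Cells were sorted for the top 10% GFP about 14 days after transfection. Variant frequency log-ratios (select vs non-select, TileSeq) were rescaled so that the nonsense median is 0 and the synonymous median is 1, then averaged over biological replicates.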
In the case of G267W, the “AIRE transcriptional activation functional score” value is reported as 1.49 ± 0.051.
In the case of G267A, the “AIRE transcriptional activation functional score” value is reported as 0.9 ± 0.2.
E17F was tested, and the “AIRE transcriptional activation functional score” value was -0.224 ± 0.25.
For L122C, the “AIRE transcriptional activation functional score” value was 1.17 ± 0.21.
With L93I the “AIRE transcriptional activation functional score” value was 0.258 ± 0.25.
For R336I, the “AIRE transcriptional activation functional score” value was 0.734 ± 0.31.
For R336W, the “AIRE transcriptional activation functional score” value was 0.655 ± 0.03.
With A373R the “AIRE transcriptional activation functional score” value was 0.736 ± 0.065.
For G263L, the “AIRE transcriptional activation functional score” value was 0.99 ± 0.34.
T46N was tested, and the “AIRE transcriptional activation functional score” value was -0.328 ± 0.33.
In the case of I209S, the “AIRE transcriptional activation functional score” value is reported as 0.203 ± 0.18.
With K83N the “AIRE transcriptional activation functional score” value was 0.0819 ± 0.18.
G242I was tested, and the “AIRE transcriptional activation functional score” value was -0.56 ± 0.23.
With Q108M the “AIRE transcriptional activation functional score” value was 2.4 ± 0.11.
For C299N, the “AIRE transcriptional activation functional score” value was 0.262 ± 0.084.
In the case of C299D, the “AIRE transcriptional activation functional score” value is reported as 0.505 ± 0.11.
With C299P the “AIRE transcriptional activation functional score” value was 0.634 ± 0.28.
In the case of K243R, the “AIRE transcriptional activation functional score” value is reported as 1.1 ± 0.42.
For A540I, the “AIRE transcriptional activation functional score” value was 0.978 ± 0.18.
With A321D the “AIRE transcriptional activation functional score” value was 0.763 ± 0.12.
In the case of A321E, the “AIRE transcriptional activation functional score” value is reported as 0.854 ± 0.085.
With I211R the “AIRE transcriptional activation functional score” value was 0.0828 ± 0.12.
R471I was tested, and the “AIRE transcriptional activation functional score” value was 1.05 ± 0.38.
S196W was tested, and the “AIRE transcriptional activation functional score” value was 0.394 ± 0.073.
For R79S, the “AIRE transcriptional activation functional score” value was 0.372 ± 0.52.
P126T was tested, and the “AIRE transcriptional activation functional score” value was 0.134 ± 0.17.
P126E was tested, and the “AIRE transcriptional activation functional score” value was 0.762 ± 0.25.
In the case of V279C, the “AIRE transcriptional activation functional score” value is reported as 1.36 ± 0.22.
In the case of K133P, the “AIRE transcriptional activation functional score” value is reported as 0.469 ± 0.58.
In the case of K133E, the “AIRE transcriptional activation functional score” value is reported as 0.0731 ± 0.23.
For P233R, the “AIRE transcriptional activation functional score” value was 1.18 ± 0.23.
In the case of V123M, the “AIRE transcriptional activation functional score” value is reported as 1.72 ± 0.061.
With P289F the “AIRE transcriptional activation functional score” value was 0.919 ± 0.29.
In the case of R15Y, the “AIRE transcriptional activation functional score” value is reported as -0.904 ± 0.22.
For A281V, the “AIRE transcriptional activation functional score” value was 0.872 ± 0.29.
For A281F, the “AIRE transcriptional activation functional score” value was 1.63 ± 0.22.
A343P was tested, and the “AIRE transcriptional activation functional score” value was 0.957 ± 0.096.
With A343W the “AIRE transcriptional activation functional score” value was 1.93 ± 0.13.
For T147R, the “AIRE transcriptional activation functional score” value was 1.03 ± 0.44.
T147Q was tested, and the “AIRE transcriptional activation functional score” value was 0.724 ± 0.48.
With Q530T the “AIRE transcriptional activation functional score” value was 1.05 ± 0.1.
In the case of P350D, the “AIRE transcriptional activation functional score” value is reported as 1.09 ± 0.12.
With P350K the “AIRE transcriptional activation functional score” value was 0.93 ± 0.039.
For E167D, the “AIRE transcriptional activation functional score” value was 1.12 ± 0.48.
With E167F the “AIRE transcriptional activation functional score” value was 1.89 ± 0.12.
For L62H, the “AIRE transcriptional activation functional score” value was -0.594 ± 0.34.
For L62N, the “AIRE transcriptional activation functional score” value was 0.232 ± 0.31.
With L62Y the “AIRE transcriptional activation functional score” value was 0.0998 ± 0.29.
In the case of A33R, the “AIRE transcriptional activation functional score” value is reported as -0.705 ± 0.25.
In the case of A33S, the “AIRE transcriptional activation functional score” value is reported as 0.0699 ± 0.49.
A265I was tested, and the “AIRE transcriptional activation functional score” value was 0.975 ± 0.23.
In the case of G374K, the “AIRE transcriptional activation functional score” value is reported as 0.524 ± 0.58.
With A191E the “AIRE transcriptional activation functional score” value was 0.164 ± 0.45.
In the case of P360S, the “AIRE transcriptional activation functional score” value is reported as 0.994 ± 0.16.
E485F was tested, and the “AIRE transcriptional activation functional score” value was 1.1 ± 0.035.
E485W was tested, and the “AIRE transcriptional activation functional score” value was 1.08 ± 0.049.
For P401G, the “AIRE transcriptional activation functional score” value was 1.14 ± 0.17.
P401D was tested, and the “AIRE transcriptional activation functional score” value was 1.07 ± 0.31.
For S153W, the “AIRE transcriptional activation functional score” value was 1.4 ± 0.025.
With H458E the “AIRE transcriptional activation functional score” value was 0.661 ± 0.096.
In the case of L13A, the “AIRE transcriptional activation functional score” value is reported as 0.273 ± 0.21.
T468H was tested, and the “AIRE transcriptional activation functional score” value was 0.996 ± 0.11.
L291Q was tested, and the “AIRE transcriptional activation functional score” value was 0.902 ± 0.21.
Y231F was tested, and the “AIRE transcriptional activation functional score” value was 1.05 ± 0.094.
V118F was tested, and the “AIRE transcriptional activation functional score” value was 1.01 ± 0.24.
For L75V, the “AIRE transcriptional activation functional score” value was 1.31 ± 0.33.
In the case of L75P, the “AIRE transcriptional activation functional score” value is reported as -0.233 ± 0.32.
With R12C the “AIRE transcriptional activation functional score” value was -0.448 ± 0.53.
R12L was tested, and the “AIRE transcriptional activation functional score” value was 0.419 ± 0.69.
For R12D, the “AIRE transcriptional activation functional score” value was -0.77 ± 0.14.
For S195G, the “AIRE transcriptional activation functional score” value was 0.859 ± 0.19.
E508W was tested, and the “AIRE transcriptional activation functional score” value was 0.888 ± 0.048.
G333T was tested, and the “AIRE transcriptional activation functional score” value was 0.561 ± 0.19.
With G333V the “AIRE transcriptional activation functional score” value was 1.05 ± 0.15.
For Q262D, the “AIRE transcriptional activation functional score” value was 1.13 ± 0.15.
L66N was tested, and the “AIRE transcriptional activation functional score” value was -0.299 ± 0.66.
In the case of E45H, the “AIRE transcriptional activation functional score” value is reported as -0.452 ± 0.067.
In the case of D439W, the “AIRE transcriptional activation functional score” value is reported as 1.2 ± 0.12.
In the case of S402Y, the “AIRE transcriptional activation functional score” value is reported as 1.17 ± 0.2.
S402W was tested, and the “AIRE transcriptional activation functional score” value was 1.22 ± 0.079.
For L177A, the “AIRE transcriptional activation functional score” value was 0.839 ± 0.37.
For L177E, the “AIRE transcriptional activation functional score” value was -0.132 ± 0.43.
T480R was tested, and the “AIRE transcriptional activation functional score” value was 0.837 ± 0.35.
